Consider one molecule from patent US9073982B2, “Targets for regulation of angiogenesis” (The University of North Carolina at Chapel Hill, priority 2008, dated 2015).

The subject of experiment [1] is mouse endothelial cells (MEC). The experiment is described as follows: Endothelial cell tube formation assay, MEC cells. It counts as cell-based. Conditions: SFRP2 concentration range, 8 hours. On the procedure:
The tube formation properties of SFRP2 on mouse endothelial cells (MEC) cells were evaluated using an endothelial cell tube formation assay. ECMATRIX (Chemicon) was thawed, diluted and solidified in a 96 well plate according to the manufacturer's instructions. 1×10^4 cells/well in 150 μl of DMEM (celigro) with 10% FBS (HyClone) and a concentration range (7-7000 pM) of SFRP2 (US Biologicals) were seeded onto the matrix and returned to 37° C., 5% CO2 for 8 hours. Images were acquired using the Nikon Eclipse TS100 microscope at 4× magnification with a Nikon CoolPix 995 digital camera. Results were quantified by counting the number of branch points.
To evaluate whether tacrolimus inhibits SFRP2 induced tube formation, MEC cells were treated as above with SFRP2 7 nM with and without tacrolimus 100 uM for 8 hours and branch points were determined as described above. To evaluate whether tacrolimus reversed established tubes, cells were incubated with SFRP2 7 nM for 8 hours and then BSA or tacrolimus 100 μM was added to SFRP2 treated cells for an additional 4 hours, and then the number of branch points were counted. […] Tacrolimus was not cytotoxic to MEC cells, as only 5% of tacrolimus-treated cells took up trypan blue dye (data not shown).
The tube formation properties of SFRP2 on MEC cells were evaluated using an endothelial cell tube formation assay. ECMATRIX (Chemicon) was thawed, diluted and solidified in a 96 well plate according to the manufactures instructions. 1×10^4 cells/well in 150 μl of DMEM (cellgro) with 10% FBS (HyClone) and a concentration range (3-3000 pM) of SFRP2 (US Biologicals) were seeded onto the matrix and returned to 37° C., 5% CO2 for 8 hours. Images were acquired using the Nikon Eclipse TS100 microscope at 4× magnification with a Nikon CoolPix 995 digital camera. Results were quantified by counting the number of branch point. To evaluate whether tacrolimus inhibits SFRP2 induced tube formation, MEC cells were treated as above with SFRP2 30 nM with and without tacrolimus (1 μM-100 uM) for 8 hours and branch points were determined as described above. To evaluate whether inhibitors of SFRP2-mediated angiogenesis would inhibit the growth of SVR tumor cells, SVR cells were treated with tacrolimus (1 μM-100 μM) or with a rabbit polyclonal antibody to SFRP-2 (H-140) (Santa Cruz Biotechnology, Santa Cruz, Calif., catalogue 4 sc-13940) in the tube formation assay.

Experiment [2] relates to Human coronary artery endothelial cells (HCAEC). The experiment is described as follows: Hypoxia-induced endothelial cell apoptosis assay (caspase 3). Type of experiment: cell-based. Conditions: SFRP2 70 pM and 700 pM, 36 h hypoxia. The procedure: Human coronary artery endothelial cells (HCAEC) were used for apoptosis assays because apoptosis could not be induced in the MEC cells. HCAECs were grown in 10-cm dishes (Becton Dickinson, Franklin Lakes, N.J.) with endothelial cell basal medium-2 (EGM-2) BulletKit media (Clonetics, San Diego, Calif.) until 80% confluent. Medium was then replaced with optimal medium according to different assays. The hypoxic condition was created by incubating HCAECs in EGM-2 media without BulletKit growth factors at 37° C. in a hypoxia chamber with an atmosphere of 5% CO2/95% N2. The oxygen level in the chamber was controlled to 1.0%. Apoptosis was determined by measuring the activity of cleaved caspase 3 by using a caspase-specific fluorogenic substrate according to the protocol for the Caspase 3 Assay Kit (Sigma). HCAECs were lysed after treatment with concentrations of SFRP2 (70 pM and 700 pM) for 36 h under hypoxia. […] The enzyme-catalyzed release of 7-amino-4-methyl coumarin (AMC) was measured by a fluorescence microplate reader.
HCAEC were seeded onto a 96 well plate at 2,000 cells/well in EGM-2 with BulletKit growth supplements. […] Apoptosis was determined by measuring the activity of cleaved caspase 3 by using a caspase-specific fluorogenic substrate according to the protocol for the Apo-ONE® Homogeneous Caspase-3/7 Assay (Promega, Madison, Wis.). […]

“Also recorded” adds a separate entry of the source.

B1: SFRP2: mouse recombinant SFRP2 (US Biologicals), secreted frizzled-related protein 2 (protein)
chain: LFLFGQPDFSYKRSNCKPIPANLQLCHGIEYQNMRLPNLLGHETMKEVLEQAGAWIPLVMKQCHPDTKKFLCSLFAPVCLDDLDETIQPCHSLCVQVKDRCAPVMSAFGFPWPDMLECDRFPQDNDLCIPLASSDHLLPATEEAPKVCEACKTKNEDDNDIMETLCKNDFALKIKVKEITYINRDTKIILETKSKTIYKLNGVSERDLKKSVLWLKDSLQCTCEEMNDINAPYLVMGQKQGGELVITSVKRWQKGQREFKRISRSIRKLQC
With B1, the “endothelial tube formation (branch points)” value in experiment [1] was “induced by SFRP2 in a concentration-dependent manner; also recorded: induces endothelial tube formation at 8 hours in a concentration-dependent manner”. Also, in experiment [2], the “hypoxia induced endothelial cell apoptosis (cleaved caspase 3 activity)” value is reported as “protected against hypoxia induced endothelial cell apoptosis; also recorded: inhibits hypoxia-induced apoptosis”.
